Laboratory results: patent publication US20050221355A1, “cDNA for human methylenetetrahydrofolate reductase and uses thereof” (McGill University, priority 1994, published 2005)
pIC50: −log10 of the molar value.

What was measured:
human MTHFR = assay: Enzymatic and thermolability assay of E. coli extracts expressing wild-type or mutagenized MTHFR cDNA; type: biochemical
Procedure: Overnight cultures of JM105™ containing vector alone, vector+wild-type MTHFR cDNA, or vector+mutagenized cDNA were grown at 370° C. in 2×YT media with 0.05 mg/ml ampicillin. Fresh 10 ml. cultures of each were inoculated with approximately 50 μL of overnight cultures for a starting O.D. of 0.05, and were grown at 370° C. to an O.D. of 1 at 420 nM. Cultures were then induced for 2 hrs. with 1 mM IPTG and pelleted. The cells were resuspended in TE buffer with 2 μg/ml aprotinin and 2 μg/ml leupeptin (3.5×wet weight of cells). Cell suspensions were sonicated on ice for 3×15 sec. to break open cell membranes and then centrifuged for 30 min. at 4° C. to pellet cell debris and unlysed cells. The supernatant was removed and assayed for protein concentration with the Bio-Rad™ protein assay. […] Enzymatic assays were performed by established procedures; pre-treating the extracts at 46° C. for 5 min. before determining activity assessed thermolability. Specific activities (nmol formaldehyde/hr./mg. protein) were calculated for the 2 cDNA-containing constructs after subtraction of the values obtained with vector alone (to subtract background E. Coli MTHFR activity).

[1] = system: colon carcinoma lines that carry the 677C/T mutation in MTHFR; assay: Methotrexate added to colon carcinoma lines in culture (cell kill), lines with the MTHFR mutation; type: cell-based; conditions: colon carcinoma lines with the 677C/T MTHFR mutation; read-out: IC50 (concentration needed to kill half the cells)
Procedure: (§1) Various doses of methotrexate (a drug used in treatment of cancer and arthritis, possibly other diseases) were added to colon carcinoma lines in culture. […] To extrapolate to the human condition, patients with this MTHFR mutation might require lower doses of methotrexate for therapy, or might be subject to methotrexate toxicity at high doses.

[2] = system: colon carcinoma lines that do not carry the 677C/T mutation in MTHFR; assay: Methotrexate added to colon carcinoma lines in culture (cell kill), lines without the MTHFR mutation; type: cell-based; conditions: colon carcinoma lines without the 677C/T MTHFR mutation; read-out: IC50 (concentration needed to kill half the cells)
Procedure: as §1

Compound | mean specific activity before heating (human MTHFR; Exp. 1, vector-alone value subtracted) | mean specific activity before heating (human MTHFR; Exp. 2, vector-alone value subtracted) | pIC50 [1] | pIC50 [2]
MTHFR: recombinant human methylenetetrahydrofolate reductase, about 70 kDa, expressed in E. coli from the wild-type 2.2 kb cDNA | 3.8 nmol formaldehyde/hr./mg. protein | 6.2 nmol formaldehyde/hr./mg. protein |  | 
CN(Cc1cnc2nc(N)nc(N)c2n1)c1ccc(C(=O)N[C@@H](CCC(=O)O)C(=O)O)cc1 [methotrexate] |  |  | ~7.70 | ~6.82
